# From the supplement of paper PMC9170038
# Tested on: MS2 coat protein
# Experiment: apparent KD of MS2 coat protein; designed switch direction (-1 OFF switch, 1 ON switch): -1; higher = weaker reporter binding
# Outline: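 Designed RNA switches were transcribed on Illumina chips by stalled E. coli RNA polymerase and titrated with SNAP-549-labelled MS2 coat protein from 0.7 or 1.5 nM, doubling to 3 µM. Step length ran from 0.8–1.5 h at the lowest concentration to 10–20 min at the highest. The apparent KD is the median over clusters for each design, from curve-fitted normalised cluster fluorescence.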
# [1] = Eterna round: R95, input ligand: FMN 200 uM
# [2] = Eterna round: R95, input ligand: microRNA oligo, concentration not stated
# [3] = Eterna round: R95, input ligand: none
# [4] = input ligand: microRNA oligo, concentration not stated
Sequence,apparent KD of MS2 coat protein [1],apparent KD of MS2 coat protein [2],apparent KD of MS2 coat protein [3],apparent KD of MS2 coat protein (input ligand: FMN 200 uM),apparent KD of MS2 coat protein [4],apparent KD of MS2 coat protein (input ligand: none)
UUGGAUGUUGAGGAUAUGCUUUUUUUUAUUAUAGCAGAAGGCGAUACAUGAGGAUCACCCAUGUUCAUGGCUUU [JR_E6_Sub099] (puzzle: Exclusion 6),14.5 nM,13.7 nM,14.6 nM,,,
AUCUCCUCUGUCAGGAUAUAUAAACUGUUGCAGUGGUAGAAGGGACAUGAGGAUCACCCAUGUAAUAUAAAUAA [Bivege] (puzzle: Brourd's mod of Exclusion 4),,26.6 nM,,,,
"UAUACAAAAGAUACCUCGUGACAUGAGGAUCACCCAUGUUUUGAGGAUAUCAGACUUCAUGGUCAUGAGAAGGCAGAGCAUGAU [Tireala] (Eterna round: R96, puzzle: Exclusion NG 3)",,,,20.4 nM,10.1 nM,13.6 nM
"GCAGUAUGAGUUAGGAUAUGAUGAUUUUUAUUAAAUCAGAAGGAACUUGAGGAUCACCCAAGUAAAGAAUUGGU [JR_BMEx4_Sub069] (Eterna round: R97, puzzle: Brourd's mod of Exclusion 4)",,,,23.3 nM,,20.4 nM
"GCACGGAGUGUAGGAUAUCUGUGCGAUUAGCUCAGAGAAGGACACAUGAGGAUCACCCAUGUGUAACAACACAAUAAUCCGUGC [Eli exng1 - 072] (Eterna round: R96, puzzle: Exclusion NG 1)",,,,12.3 nM,11.2 nM,14.2 nM
"UCUCGCUGGCGAGGAUAUCCUGUGCGGUUCCGGCUCGUGUCUGUUACAUGAGGAUCACCCAUGUGGGAGAAGGUGUCUGUGGCC [Design 96] (Eterna round: R96, puzzle: Exclusion NG 2)",,,,16.7 nM,15.4 nM,18.8 nM
"CAGUACUGAGGAUAUACAUGAGGAUCACCCAUGUUGAGAUGAAAAGAAAGAGUUAAAUGUAGAAGGCGGUGCUG [JR_Ex3_Sub047] (Eterna round: R97, puzzle: Exclusion 3)",,,,523 nM,,71.1 nM
"UUUAAACAUGAGGAUCACCCAUGUGAGGAUAUACGAAUGCAGACACACACGGAUGCAAGUAGAAGGCACAACGC [Design #11] (Eterna round: R97, puzzle: Exclusion 1)",,,,29.4 nM,,25 nM
GAGUGACAUGAGGAUCACCCAUGUGAGGAUAUCGGCCGGACCUUGUUAGCUUCCGCCGCGAGAAGGCACAUCGG [Exclusion 1 V28] (puzzle: Exclusion 1),,55.9 nM,,,,
CAAAAGGUAGGAUAUACGAAAAAAAAGGGUAGAAAAAAAACACAUGAGGAUCACCCAUGUAGAAGGACCAAAAA [salish99_ex2_r3_055] (puzzle: Exclusion 2),67.6 nM,22 nM,24.5 nM,,,
"CAGUACUGAGGAUAUACAUGAGGAUCACCCAUGUGAGAGAUACUAGUGAGGUCGAUUAGUAGAAGGCAGUACUG [Mat X3R4 m3] (Eterna round: R97, puzzle: Exclusion 3)",,,,856 nM,,35.7 nM
UCAUGUUAGCAGGAUAUGCUAUUUAUCUUUUAUGCAGAAGGGCUUACAUGAGGAUCACCCAUGUAUUAAGUCUU [JR_E6_Sub075] (puzzle: Exclusion 6),,18 nM,,,,
"GCUGGUCGAGGAUAUACAUAACGUGCUUCGGCACGAGAUCUACAUGAGGAUCACCCAUGUAGAAGGCGACCAGC [E2/10-A1] (Eterna round: R97, puzzle: Exclusion 2)",,,,57.8 nM,,18 nM
"UAUAACCAAGGAUAUACAUGAGGAUCACCCAUGUAAUAUAAAAUAAAAUAAAUAAAAUGUAGAAGGUGGGAUAU (Eterna round: R97, puzzle: Exclusion 3)",,,,40.8 nM,,37.6 nM
"AGUAAGCUAGGAUAUGCUUAGGGAAAGCCUUCCUUCCACAAACUUGAGGAUCACCCAAGUAGAAGGAGCUAAAU [jl-ex2.4.46 ViennaUCT mod] (Eterna round: R97, puzzle: Exclusion 2)",,,,15.4 nM,,13.5 nM
"AUAACAAGCUUUUUGCUCGUCGUAUAUGACGCUCGAGUCACAUGAGGAUCACCCAUGUCUUCCUGUUUGAUUGUUGA [JR_SV3TOV2_Sub056] (puzzle: Sensor v3, turn-off variant 2)",148 nM,122 nM,177 nM,,,
"AACCUGAGGCAAAGCUUUAGGUGUACAUGAGGAUCACCCAUGUAGGAUAUGGUAGGCUUUGCUUACCAGAAGGACAUUAUGAUG [Mat - Exclusion NG 3 - Mod of JL - D50] (Eterna round: R96, puzzle: Exclusion NG 3)",,,,68.6 nM,41.9 nM,51.7 nM
